Here are results for two molecules from patent publication US8758763B2, “Archaeal polar lipid aggregates for administration to animals” (National Research Council of Canada, priority 2006, dated 2014).

The subject of assay [1] is OVA. The class given is in vivo, Balb/c mice.
Assay [2] relates to OVA. As to the kind of experiment: Anti-OVA antibody responses (ELISA) in immunized C57BL/6 mice. To be noted: i.n. at 0, 7, 21 d, 10 μg OVA/immunization; 28 d. (In general: ELISA stands for enzyme-linked immunosorbent assay.)
For another assay, the system named is EG.7 cells. As to the kind of experiment: Cytotoxic T lymphocyte (CTL) assay, 51Cr release, spleen cells of immunized mice. The note with it: i.n. at 0, 7, 21 d, 10 μg OVA/immunization; spleen cells at 36-42 d; target EG.7 cells. The class given is in vivo, C57BL/6 mice. Here is the method: For conducting cytotoxic (cytotolytic) T Lymphocyte (CTL) assays, EL-4 and EG.7 (subclone of EL-4 that has been stably transfected with the gene encoding for OVA expression), cell lines were obtained from the American Type Culture Collection (ATCC, Manassas, Va., USA). Both cell lines were maintained in RPMI 1640 medium (Life Technologies, Grand Island, N.Y.) supplemented with 8% fetal bovine serum (FBS, Invitrogen Canada, Inc., Burlington, Ontario, Canada), except that 400 μg/ml G418 supplement (Invitrogen Canada Inc.) was also added for maintaining the EG.7 cell line. All cells were cultured at 37° C. in a humidified atmosphere of air containing 8% CO2. […]
After 5 days incubation (37° C., 8% CO2 in air), the cells were recovered, washed, and counted for use as effector cells for the CTL assay. […] The culture supernatants were collected and the released radioactivity in 70 μl aliquots for gamma counter or in 50 μl aliquots for beta counter, was measured after adding to 150 μl Optiphase Supermix^R scintillant (PerkinElmer LAS Canada, Inc., Woodbridge, Ontario, Canada). Percent specific cell lysis was calculated as 100×[(cpm experimental−cpm spontaneous)/cpm maximum−cpm spontaneous)]. […]

B1: OVA/saline: OVA in saline, no adjuvant control (protein, UniProt P01012 2-386, looked up)
Ovalbumin: GSIGAASMEFCFDVFKELKVHHANENIFYCPIAIMSALAMVYLGAKDSTRTQINKVVRFDKLPGFGDSIEAQCGTSVNVHSSLRDILNQITKPNDVYSFSLASRLYAEERYPILPEYLQCVKELYRGGLEPINFQTAADQARELINSWVESQTNGIIRNVLQPSSVDSQTAMVLVNAIVFKGLWEKAFKDEDTQAMPFRVTEQESKPVQMMYQIGLFRVASMASEKMKILELPFASGTMSMLVLLPDEVSGLEQLESIINFEKLTEWTSSNVMEERKIKVYLPRMKMEEKYNLTSVLMAMGITDVFSSSANLSGISSAESLKISQAVHAAHAEINEAGREVVGSAEAGVDAASVSEEFRADHPFLFCIKHIATNAVLFFGRCVSP
B1: in the assay with OVA [1] (mouse, in vivo), the “anti-OVA IgA responses” value is reported as “negligible to not measurable”. Further, in the assay on OVA [2], the “anti-OVA IgA responses in fecal, vaginal wash and serum samples” value is listed as “Little to no measurable”; the “serum IgG, IgG1 and IgG2a responses” value was “measurable, but smaller”. The “CTL response, specific cell lysis” value in the assay with EG.7 cells is “no CTL response”.

B2: OVA/CaCl2: OVA in saline supplemented with 15 mM CaCl2, no adjuvant group (protein, UniProt P01012 2-386, looked up)
Ovalbumin: GSIGAASMEFCFDVFKELKVHHANENIFYCPIAIMSALAMVYLGAKDSTRTQINKVVRFDKLPGFGDSIEAQCGTSVNVHSSLRDILNQITKPNDVYSFSLASRLYAEERYPILPEYLQCVKELYRGGLEPINFQTAADQARELINSWVESQTNGIIRNVLQPSSVDSQTAMVLVNAIVFKGLWEKAFKDEDTQAMPFRVTEQESKPVQMMYQIGLFRVASMASEKMKILELPFASGTMSMLVLLPDEVSGLEQLESIINFEKLTEWTSSNVMEERKIKVYLPRMKMEEKYNLTSVLMAMGITDVFSSSANLSGISSAESLKISQAVHAAHAEINEAGREVVGSAEAGVDAASVSEEFRADHPFLFCIKHIATNAVLFFGRCVSP
For B2, the “anti-OVA IgA antibody responses (fecal, vaginal, nasal, bile, serum)” value in the assay with OVA [1] (28 d) is “little or no measurable”.
